Patent US8846340B2, “Carbohydrate-binding modules of a new family” (Novozymes A/S, priority 2003, dated 2014)

What was measured:
[1] = Binding of CBMX to Avicel (A280 of supernatant); conditions: for A280: Absorbance at 280 nm of 200 μl supernatant, absorbance of buffer and Avicel subtracted: 4 hours, room temperature, 20 mM Tris pH 7.5
Protocol: The carbohydrate-binding domain with affinity for Avicel® and purified as described in Example 2 (CBMX) was studied further. 50 μl purified CBMX was mixed with 500 μl 20 mM Tris, pH 7.5 containing varying amount of Avicel® (0-100 mg/ml) in an Eppendorf tube. After 4 hours incubation at room temperature with agitation, the samples were centrifuged. 200 μl supernatant was transferred to the well of a microtiter plate (Costar, UV plate) and absorbance read at 280 nm on a microtiter plate reader (SpectraMax® Plus, Molecular Devices).

[2] = Binding of CBMX to PASC (A280 of supernatant); conditions: 4 hours, room temperature; for A280: Absorbance at 280 nm of 200 μl supernatant, absorbance of buffer subtracted: 20 mM Tris pH 7.5
Protocol: A similar binding study was performed with PASO (Phosphoric Acid Swollen Cellulose: To 5 g Avicel® moistened with water 150 ml ice-cold 85 ortho-phosphoric acid is added. After 1 hour stirring on ice bath, 500 ml cold acetone is added. The suspension is filtered and washed, first with acetone and then with water). 50 μl purified CBMX was mixed with 500 μl 20 mM Tris, pH 7.5 containing varying amount of PASO (0-10 mg/ml) in an Eppendorf tube. Samples were incubated 4 hours at room temperature with agitation. After centrifugation, 200 μl supernatant was transferred to the well of a microtiter plate and absorbance read at 280 nm.

[3] = Competition binding assay with CBMX and Avicel, references without soluble carbohydrate; conditions: 4 hours
Protocol: (§1) Affinity of CBMX for a number of soluble carbohydrates was tested in a competition assay by mixing 100 μl CBMX with both Avicel® (400 μl 50 mg/ml in 20 mM Tris, pH 7.5) and the soluble carbohydrate (dissolved in 500 μl 20 mM Tris, pH 7.5). As references, samples without CBMX or soluble carbohydrate added were used. If CBMX has affinity for the soluble carbohydrate it should be able to keep CBMX in solution which can be measured as increase in absorbance at 280 nm compared to sample without soluble carbohydrate added. After 4 hours incubation at room temperature with agitation, samples were centrifuged and absorbance at 280 nm was read using 200 μl supernatant in the well of a microtiter UV plate. Tested soluble carbohydrates were barley β-glucan (Megazyme, low viscosity), lichenan (Megazyme, Icelandic moss), CMC (carboxymethyl cellulose 7LF, Hercules, USA), Xyloglucan (Megazyme, amyloid, from tamarind seed), lupin galactan (Megazyme) and Locust bean gum (Sigma, G-0753).

[4] = Competition binding assay with CBMX, Avicel and soluble carbohydrate; set-up: species or system barley; conditions: beta-glucan
Protocol: as §1

[5] = as above; set-up: species or system Icelandic moss; conditions: lichenan
Protocol: as §1

[6] = as above; set-up: species or system tamarind; conditions: xyloglucan
Protocol: as §1

[7] = as above; set-up: species or system lupin; conditions: galactan
Protocol: as §1

[8] = as above; conditions: for CBMX kept in solution by soluble carbohydrate (in words): competition with Avicel
Protocol: as §1

B1: CBMX: Carbohydrate-binding module of Pseudoplectania nigrella GH61 enzyme (positions 34-174 of SEQ ID NO:2), expressed in Aspergillus oryzae, purified on Avicel (protein, listed as Pseudoplectania nigrella)
chain: SSGTSNDKAVASSSIAAVDPVTSSVVASVQVPNFTATDVPTFTATDIPTFTATDVPIFTKKPQQPSTLLTRTRTHASVSFVAKPSAFIPKPSASTIPSKPKTPEEVNKCLDAVNACITQAQSSIGGVVNFEPCESQRALCY
- A280: Absorbance at 280 nm of 200 μl supernatant, absorbance of buffer and Avicel subtracted ([1]; Avicel 0.0 mg/ml): 0.0768
- A280: Absorbance at 280 nm of 200 μl supernatant, absorbance of buffer and Avicel subtracted ([1]; Avicel 0.391 mg/ml): 0.0777
- A280: Absorbance at 280 nm of 200 μl supernatant, absorbance of buffer and Avicel subtracted ([1]; Avicel 0.781 mg/ml): 0.0808
- A280: Absorbance at 280 nm of 200 μl supernatant, absorbance of buffer and Avicel subtracted ([1]; Avicel 1.563 mg/ml): 0.0799
- A280: Absorbance at 280 nm of 200 μl supernatant, absorbance of buffer and Avicel subtracted ([1]; Avicel 3.125 mg/ml): 0.0729
- A280: Absorbance at 280 nm of 200 μl supernatant, absorbance of buffer and Avicel subtracted ([1]; Avicel 6.25 mg/ml): 0.0637
- A280: Absorbance at 280 nm of 200 μl supernatant, absorbance of buffer and Avicel subtracted ([1]; Avicel 12.5 mg/ml): 0.0540
- A280: Absorbance at 280 nm of 200 μl supernatant, absorbance of buffer and Avicel subtracted ([1]; Avicel 25 mg/ml): 0.0326
- A280: Absorbance at 280 nm of 200 μl supernatant, absorbance of buffer and Avicel subtracted ([1]; Avicel 50 mg/ml): 0.0185
- A280: Absorbance at 280 nm of 200 μl supernatant, absorbance of buffer and Avicel subtracted ([1]; Avicel 100 mg/ml): 0.0095
- Binding of the protein to Avicel (in words) ([1]; highest concentrations of Avicel, 4 hours incubation): the large majority of the protein binds
- Affinity for Avicel (in words) ([1]; summary statement): have affinity for Avicel®
- Affinity for PASC (in words) ([2]; 0-10 mg/ml): has affinity for PASO
- A280: Absorbance at 280 nm of 200 μl supernatant, absorbance of buffer subtracted ([2]; PASC 0.0 mg/ml): 0.0753
- A280: Absorbance at 280 nm of 200 μl supernatant, absorbance of buffer subtracted ([2]; PASC 0.625 mg/ml): 0.0682
- A280: Absorbance at 280 nm of 200 μl supernatant, absorbance of buffer subtracted ([2]; PASC 1.25 mg/ml): 0.0710
- A280: Absorbance at 280 nm of 200 μl supernatant, absorbance of buffer subtracted ([2]; PASC 2.5 mg/ml): 0.0618
- A280: Absorbance at 280 nm of 200 μl supernatant, absorbance of buffer subtracted ([2]; PASC 5 mg/ml): 0.0512
- A280: Absorbance at 280 nm of 200 μl supernatant, absorbance of buffer subtracted ([2]; PASC 10 mg/ml): 0.0471
- Difference in A280 between samples with and without CBMX added ([3]; None - Only Avicel (20 mg/ml) and CBMX, no soluble carbohydrate): 0.018
- Difference in A280 between samples with and without CBMX added ([3]; None - Only CBMX (no Avicel, no soluble carbohydrate)): 0.108
- Affinity of CBMX for soluble carbohydrate (in words) [4]: affinity
- CBMX kept in solution by soluble carbohydrate (in words) ([4]; competition with Avicel): keep almost all CBMX in solution
- Affinity of CBMX for soluble carbohydrate (in words) [5]: no affinity for lichenan could be detected
- CBMX kept in solution by soluble carbohydrate (in words) ([5]; competition with Avicel): does not result in any increase in CBMX in solution
- Affinity of CBMX for soluble carbohydrate (in words) [6]: to some extent
- CBMX kept in solution by soluble carbohydrate (in words) ([6]; competition with Avicel): about half of the CBMX in solution
- Affinity of CBMX for soluble carbohydrate (in words) [7]: to some extent
- CBMX kept in solution by soluble carbohydrate (in words) ([7]; competition with Avicel): about half of the CBMX in solution
- Affinity of CBMX for soluble carbohydrate (in words) ([8]; CMC): affinity
- CBMX kept in solution by soluble carbohydrate (in words) ([8]; CMC): keep almost all CBMX in solution
- Affinity of CBMX for soluble carbohydrate (in words) ([8]; locust bean gum): affinity
- CBMX kept in solution by soluble carbohydrate (in words) ([8]; locust bean gum): keeps the majority in solution
